Assay results as given in US20220204643A1 (published 2022).

What was measured:
Assay in all cases: protein array
[1] = target: T1, Ankyrin repeat domain 20 family member a5, pseudogene (human, UniProt A0PJZ0 1-165)
T1 construct: on protein array; also called ANKRD20A5P

[2] = target: T2, Kirre like nephrin family adhesion molecule 1 (human, UniProt Q96J84 17-757)
T2 construct: on protein array
T2 sequence: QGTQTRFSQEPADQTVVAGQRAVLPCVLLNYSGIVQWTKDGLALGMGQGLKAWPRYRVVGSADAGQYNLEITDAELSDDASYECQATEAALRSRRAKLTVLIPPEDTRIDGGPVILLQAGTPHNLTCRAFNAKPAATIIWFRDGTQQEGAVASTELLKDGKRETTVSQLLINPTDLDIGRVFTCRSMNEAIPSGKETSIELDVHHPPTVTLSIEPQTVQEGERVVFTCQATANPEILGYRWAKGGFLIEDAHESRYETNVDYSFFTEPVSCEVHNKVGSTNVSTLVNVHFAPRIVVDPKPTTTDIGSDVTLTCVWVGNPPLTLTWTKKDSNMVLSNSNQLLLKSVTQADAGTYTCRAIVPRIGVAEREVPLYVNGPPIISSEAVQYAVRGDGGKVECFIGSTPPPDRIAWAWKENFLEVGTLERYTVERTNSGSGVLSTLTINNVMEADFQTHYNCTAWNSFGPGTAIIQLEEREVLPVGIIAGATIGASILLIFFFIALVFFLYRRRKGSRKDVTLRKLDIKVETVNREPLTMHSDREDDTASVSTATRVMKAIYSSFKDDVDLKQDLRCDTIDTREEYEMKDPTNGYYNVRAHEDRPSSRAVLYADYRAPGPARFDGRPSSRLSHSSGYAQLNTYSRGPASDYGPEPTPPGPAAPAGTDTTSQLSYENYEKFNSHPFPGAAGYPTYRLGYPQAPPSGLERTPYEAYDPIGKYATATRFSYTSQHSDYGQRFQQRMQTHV

[3] = target: T3, GRB10 interacting GYF protein 1, transcript variant X10 (human, UniProt O75420 1-1035)
T3 construct: on protein array; also called GIGYF1
T3 sequence: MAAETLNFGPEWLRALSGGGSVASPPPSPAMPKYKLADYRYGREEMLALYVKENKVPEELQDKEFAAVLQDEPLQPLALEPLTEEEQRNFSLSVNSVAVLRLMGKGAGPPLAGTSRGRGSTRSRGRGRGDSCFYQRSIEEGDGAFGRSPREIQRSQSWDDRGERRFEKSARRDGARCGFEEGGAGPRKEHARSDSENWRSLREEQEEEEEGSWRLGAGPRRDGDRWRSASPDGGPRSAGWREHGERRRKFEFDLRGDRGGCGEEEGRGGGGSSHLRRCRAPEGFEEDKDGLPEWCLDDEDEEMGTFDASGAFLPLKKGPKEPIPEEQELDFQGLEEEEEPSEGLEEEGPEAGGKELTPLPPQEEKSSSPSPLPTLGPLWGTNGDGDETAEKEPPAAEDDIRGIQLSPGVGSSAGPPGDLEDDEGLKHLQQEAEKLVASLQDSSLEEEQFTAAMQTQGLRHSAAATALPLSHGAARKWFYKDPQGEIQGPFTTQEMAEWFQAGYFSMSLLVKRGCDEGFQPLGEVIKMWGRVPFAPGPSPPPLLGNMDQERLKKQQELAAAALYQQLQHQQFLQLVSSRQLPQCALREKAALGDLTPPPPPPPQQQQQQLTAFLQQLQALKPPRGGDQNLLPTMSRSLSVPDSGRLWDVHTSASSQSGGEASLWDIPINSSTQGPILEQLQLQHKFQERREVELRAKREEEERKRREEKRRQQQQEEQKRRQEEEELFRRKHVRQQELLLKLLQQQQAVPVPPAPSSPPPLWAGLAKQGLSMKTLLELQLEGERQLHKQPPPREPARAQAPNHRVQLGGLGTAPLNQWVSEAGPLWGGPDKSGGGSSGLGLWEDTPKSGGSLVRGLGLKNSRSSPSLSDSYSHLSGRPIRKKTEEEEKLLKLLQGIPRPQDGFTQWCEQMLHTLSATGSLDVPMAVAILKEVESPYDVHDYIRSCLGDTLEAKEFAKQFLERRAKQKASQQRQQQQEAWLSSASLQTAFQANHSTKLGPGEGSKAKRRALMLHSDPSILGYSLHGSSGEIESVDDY

[4] = target: T4, killer cell lectin like receptor Cl, transcript variant 3 (human, UniProt P26715 1-233)
T4 construct: on protein array; also called KLRC1
T4 sequence (P26715 other isoform, or with tags, fused parts or gaps mutant limits assumed): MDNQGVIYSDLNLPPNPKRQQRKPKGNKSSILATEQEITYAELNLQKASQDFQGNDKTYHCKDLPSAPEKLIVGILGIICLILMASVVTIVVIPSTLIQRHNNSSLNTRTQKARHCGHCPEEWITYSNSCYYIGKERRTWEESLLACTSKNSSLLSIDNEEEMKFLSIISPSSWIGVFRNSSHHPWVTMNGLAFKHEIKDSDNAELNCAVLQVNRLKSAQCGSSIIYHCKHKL

[5] = target: T5, calcium and integrin binding 1, transcript variant b (human, UniProt Q99828 2-191)
T5 construct: on protein array; also called CIB1
T5 sequence: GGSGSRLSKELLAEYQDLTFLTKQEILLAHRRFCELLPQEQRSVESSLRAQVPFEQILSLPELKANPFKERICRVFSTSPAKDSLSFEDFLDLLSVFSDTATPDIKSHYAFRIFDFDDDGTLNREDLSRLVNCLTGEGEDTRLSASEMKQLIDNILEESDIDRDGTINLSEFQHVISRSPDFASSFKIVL

[6] = target: T6, HSPA (Hsp70) binding protein 1, transcript variant 2 (human, UniProt Q9NZL4 1-359)
T6 construct: on protein array; also called HSPBP1
T6 sequence: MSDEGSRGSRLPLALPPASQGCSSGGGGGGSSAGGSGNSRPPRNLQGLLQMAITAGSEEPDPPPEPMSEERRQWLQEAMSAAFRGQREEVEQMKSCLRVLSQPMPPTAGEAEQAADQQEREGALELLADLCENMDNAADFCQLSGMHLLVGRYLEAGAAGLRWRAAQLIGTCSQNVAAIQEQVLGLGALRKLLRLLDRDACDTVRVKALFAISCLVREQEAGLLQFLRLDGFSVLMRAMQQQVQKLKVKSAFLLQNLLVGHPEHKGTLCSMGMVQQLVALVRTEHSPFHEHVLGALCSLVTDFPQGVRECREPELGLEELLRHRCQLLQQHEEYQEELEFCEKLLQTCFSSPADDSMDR

[7] = target: T7, heat shock protein family A (Hsp70) member 2 (human, UniProt P54652 1-639)
T7 construct: on protein array; also called HSPA2
T7 sequence (P54652 whole entry): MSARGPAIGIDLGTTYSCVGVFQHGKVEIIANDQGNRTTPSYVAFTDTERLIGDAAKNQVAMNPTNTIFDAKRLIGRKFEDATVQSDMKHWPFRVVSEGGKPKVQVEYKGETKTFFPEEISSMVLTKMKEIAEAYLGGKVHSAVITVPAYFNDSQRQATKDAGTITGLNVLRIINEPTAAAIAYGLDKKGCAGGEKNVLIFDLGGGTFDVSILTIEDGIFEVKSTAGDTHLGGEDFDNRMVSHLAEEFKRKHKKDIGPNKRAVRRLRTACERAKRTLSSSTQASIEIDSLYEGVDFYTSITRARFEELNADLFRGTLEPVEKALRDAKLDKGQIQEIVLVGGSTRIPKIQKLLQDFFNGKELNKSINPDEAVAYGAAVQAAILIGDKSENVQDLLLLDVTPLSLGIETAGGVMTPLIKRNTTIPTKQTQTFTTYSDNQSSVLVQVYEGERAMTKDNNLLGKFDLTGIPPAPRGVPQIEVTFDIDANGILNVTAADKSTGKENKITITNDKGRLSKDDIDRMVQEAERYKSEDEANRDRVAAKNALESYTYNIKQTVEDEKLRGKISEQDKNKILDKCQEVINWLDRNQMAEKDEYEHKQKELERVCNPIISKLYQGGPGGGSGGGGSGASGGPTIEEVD

[8] = target: T8, BCL2 associated athanogene 2 (human, UniProt O95816 2-211)
T8 construct: on protein array; also called BAG2
T8 sequence (O95816 2-211 limits assumed): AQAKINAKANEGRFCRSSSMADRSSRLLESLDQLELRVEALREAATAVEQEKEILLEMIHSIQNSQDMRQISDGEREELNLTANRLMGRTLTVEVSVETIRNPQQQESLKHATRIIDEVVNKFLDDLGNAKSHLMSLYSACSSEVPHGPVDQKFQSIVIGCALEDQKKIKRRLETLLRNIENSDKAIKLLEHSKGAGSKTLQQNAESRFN

[9] = target: T9, dual specificity phosphatase 12 (human, UniProt Q9UNI6 1-340)
T9 construct: on protein array; also called DUSP12
T9 sequence (Q9UNI6 whole entry): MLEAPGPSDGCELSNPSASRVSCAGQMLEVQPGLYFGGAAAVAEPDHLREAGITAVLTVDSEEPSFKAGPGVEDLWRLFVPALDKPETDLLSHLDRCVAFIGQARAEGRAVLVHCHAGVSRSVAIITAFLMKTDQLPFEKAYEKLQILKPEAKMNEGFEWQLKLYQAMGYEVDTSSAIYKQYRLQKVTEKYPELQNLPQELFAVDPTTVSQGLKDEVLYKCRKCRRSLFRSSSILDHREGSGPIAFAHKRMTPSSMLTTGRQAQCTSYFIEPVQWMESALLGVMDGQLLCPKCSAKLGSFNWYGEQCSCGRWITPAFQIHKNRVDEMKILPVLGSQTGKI

[10] = target: T10, actinin alpha 1, transcript variant 2 (human, UniProt P12814 1-892)
T10 construct: on protein array; also called ACTN1
T10 sequence (P12814 whole entry, change not shown): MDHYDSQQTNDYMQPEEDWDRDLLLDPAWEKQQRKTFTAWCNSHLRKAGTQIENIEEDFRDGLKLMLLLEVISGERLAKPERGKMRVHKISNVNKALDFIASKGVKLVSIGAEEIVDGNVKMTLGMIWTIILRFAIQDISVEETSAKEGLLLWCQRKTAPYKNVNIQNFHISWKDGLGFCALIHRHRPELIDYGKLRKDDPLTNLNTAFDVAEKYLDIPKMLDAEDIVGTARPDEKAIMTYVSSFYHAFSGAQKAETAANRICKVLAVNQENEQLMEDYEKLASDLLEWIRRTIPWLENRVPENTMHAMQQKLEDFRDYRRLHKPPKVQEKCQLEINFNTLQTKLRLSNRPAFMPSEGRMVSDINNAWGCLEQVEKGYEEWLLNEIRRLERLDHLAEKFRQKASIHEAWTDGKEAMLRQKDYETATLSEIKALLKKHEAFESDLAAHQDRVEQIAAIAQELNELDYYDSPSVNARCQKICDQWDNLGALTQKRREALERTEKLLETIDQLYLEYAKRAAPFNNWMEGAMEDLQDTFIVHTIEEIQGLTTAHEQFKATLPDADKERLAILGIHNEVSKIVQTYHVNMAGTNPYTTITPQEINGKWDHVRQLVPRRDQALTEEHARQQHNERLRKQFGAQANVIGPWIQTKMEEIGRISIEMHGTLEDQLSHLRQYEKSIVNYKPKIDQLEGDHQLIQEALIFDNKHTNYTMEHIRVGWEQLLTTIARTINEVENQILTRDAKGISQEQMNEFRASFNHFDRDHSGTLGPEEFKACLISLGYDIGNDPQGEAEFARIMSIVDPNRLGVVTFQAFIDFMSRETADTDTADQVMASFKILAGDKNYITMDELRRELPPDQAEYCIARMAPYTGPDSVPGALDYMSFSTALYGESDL

[11] = target: T11, coiled-coil domain containing 74B, transcript variant 2 (human, UniProt Q96LY2 1-380)
T11 construct: on protein array; also called CCDC74B
T11 sequence (Q96LY2 other isoform, or with tags, fused parts or gaps mutant limits assumed): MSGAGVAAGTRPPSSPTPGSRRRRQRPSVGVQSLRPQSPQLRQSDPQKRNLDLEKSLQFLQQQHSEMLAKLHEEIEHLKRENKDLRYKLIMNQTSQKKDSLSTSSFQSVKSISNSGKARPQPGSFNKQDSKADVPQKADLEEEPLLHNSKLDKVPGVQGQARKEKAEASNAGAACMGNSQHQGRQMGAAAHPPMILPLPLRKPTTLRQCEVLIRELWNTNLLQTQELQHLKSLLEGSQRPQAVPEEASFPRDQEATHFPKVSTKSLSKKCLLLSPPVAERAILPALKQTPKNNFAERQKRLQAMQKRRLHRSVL

[12] = target: T12, neural retina leucine zipper, transcript variant X4 (human, UniProt P54845 1-237)
T12 construct: on protein array; also called NRL
T12 sequence (P54845 whole entry, change not shown): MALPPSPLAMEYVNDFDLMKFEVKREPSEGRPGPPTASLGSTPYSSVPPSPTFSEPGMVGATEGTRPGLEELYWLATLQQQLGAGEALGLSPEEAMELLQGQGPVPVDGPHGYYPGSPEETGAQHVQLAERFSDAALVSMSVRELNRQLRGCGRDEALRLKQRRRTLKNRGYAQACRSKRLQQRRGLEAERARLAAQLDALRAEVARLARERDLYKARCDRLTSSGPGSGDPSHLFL

[13] = target: T13, HAUS augmin like complex subunit 1, transcript variant 1 (human, UniProt Q96CS2 1-278)
T13 construct: on protein array; also called HAUS1
T13 sequence: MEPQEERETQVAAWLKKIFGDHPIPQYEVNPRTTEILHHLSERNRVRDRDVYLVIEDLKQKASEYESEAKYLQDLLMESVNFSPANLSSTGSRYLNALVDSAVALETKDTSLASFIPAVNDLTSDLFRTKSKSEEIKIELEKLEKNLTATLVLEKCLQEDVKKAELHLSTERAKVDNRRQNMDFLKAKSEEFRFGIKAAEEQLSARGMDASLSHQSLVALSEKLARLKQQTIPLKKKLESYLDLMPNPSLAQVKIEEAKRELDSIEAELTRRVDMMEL

[14] = target: T14, C-X-C motif chemokine receptor 4, transcript variant 2 (human, UniProt P61073 1-352)
T14 construct: on protein array; also called CXCR4
T14 sequence (P61073 whole entry, change not shown): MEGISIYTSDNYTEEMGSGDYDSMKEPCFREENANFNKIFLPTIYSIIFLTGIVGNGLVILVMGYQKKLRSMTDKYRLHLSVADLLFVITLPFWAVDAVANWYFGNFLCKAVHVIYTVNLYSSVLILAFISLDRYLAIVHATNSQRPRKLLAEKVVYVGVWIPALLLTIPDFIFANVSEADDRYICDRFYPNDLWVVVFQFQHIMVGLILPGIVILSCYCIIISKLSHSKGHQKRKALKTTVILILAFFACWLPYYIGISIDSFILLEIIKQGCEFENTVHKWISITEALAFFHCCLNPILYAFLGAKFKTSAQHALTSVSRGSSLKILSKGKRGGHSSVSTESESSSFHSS

[15] = target: T15, Long intergenic non-protein coding rna 242 (human, UniProt Q5T6M2 1-205)
T15 construct: on protein array; also called LINC00242
T15 chain: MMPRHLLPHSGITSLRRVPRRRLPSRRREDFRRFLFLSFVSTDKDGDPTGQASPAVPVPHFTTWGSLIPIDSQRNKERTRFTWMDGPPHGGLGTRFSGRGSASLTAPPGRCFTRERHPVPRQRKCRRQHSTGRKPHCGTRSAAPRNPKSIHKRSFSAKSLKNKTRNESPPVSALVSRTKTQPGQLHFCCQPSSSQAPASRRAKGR

T1 sequence (A0PJZ0 whole entry, the tested form may be a part): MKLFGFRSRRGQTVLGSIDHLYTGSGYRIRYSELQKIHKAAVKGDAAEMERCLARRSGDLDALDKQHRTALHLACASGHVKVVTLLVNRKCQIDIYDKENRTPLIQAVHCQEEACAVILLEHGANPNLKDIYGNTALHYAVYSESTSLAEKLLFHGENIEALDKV

B1: TPRO1002 (antibody, V domains shown)
VH: EVQLVESGGGVIKPGGSLKLSCEGSGFTLDDYVMHWVRQAPGKGLEWISSISGDGTRTYYADSVKGRFTISRNNGKNSLYLQMDSLRREDTALYYCAKDARLAYYGMDVWGQGTTVTVSS
VL: QSALTQPASVSGSPGQSITISCTGTSSDIGGYDLVSWYQHHPGKAPKLVISEGSKRPSGVSNRFFGSKSGNTASLTISGLQAEDEADYYCCSFTGTSTFVFGTGTKVTVL
notes: VH/VL tied via antigen in summary, not by name in this stretch
[1]
  binding result: binds
[2]
  binding result: binds
[3]
  binding result: binds

B2: TREC1003 (antibody, V domains shown)
VH: QVQLVQSGSEVKKPGASVRLACKTSGYTFSNYGVSWVRQGPGRGLEWLGWISGYNGRTHSADKFRDRVTLTTDTSTTTVYVDLKNLTSDDTAVYYCARVGTSHWYSDSWGQGTLVTVSS
VL: QSVLTQPPSVSGAPGQRVTISCAGSYSNIGAGYDVHWYRQLPGTAPTLLIYSNNNRPSGVSDRFSGSKSGTSASLAITGLQAEDEADYYCQSFDSSLSRSVFGTGTKVTVL
notes: as for B1
[4]
  binding result: binds

B3: TSTO1001 (antibody, V domains shown)
VH: VVQLLESGGGLVHPGGSLRISCAASEFTFSAYAMTWVRQAPGKGLEWVSAISGSGGRTYYADSLKGRFTISRDNSKHTLYLLMNSLRVEDTAVYYCASRYRSPSGAFDIWGQGTLVTVSS
VL: EIVMTQSPATLSVSQGERATLSCRASQSVGSDLAWYQQKPGQAPRLLIYDASARATDIPARFSGSGSETEFTLTISSLQSEDFAVYYCQHYSDWRALTFGGGTKVEIKR
notes: as for B1
[5]
  binding result: binds

B4: TSAR1005 (antibody, V domains shown)
VH: QVQLVESGGGVVQPGRSLRLSCVASGFTFSNYAMHWVRQAPGKGLEWVAVIWYDGSNEYYRDSVEGRFTISRDSSKNTLYLLVNSLRAEDTAVYYCARGNGPKSGKYSDFDYWGQGTLVTVSS
VL: DVVMTQSPLSLPVTLGQAASISCRSSQSLVYSDGNTYLNWFQQRPGQSPRRLIYKVSNRESGVPDRFSGSGSGTDFTLQISRVEAEDVGIYYCMQGAHWPPITFGQGTRLEIKR
notes: as for B1
[6]
  binding result: binds
[7]
  binding result: binds
[8]
  binding result: binds

B5: TBRE1007 (antibody, V domains shown)
VH: QVQLQESGPGLVRPSETLSLTCDVSGYLISSGYYWGWVRQPPGKGLEWIGSVYHSGNAYYNPSLKGRVTMSVDTSKNQFSLKLTSVAAEDTAVYYCAREHRSGYQRYWGQGTLVTVSS
VL: IQMTQSPSSLSASVGDRVTITCRASQAIANSLAWYQQRPGKAPKLLIYAASSLESGVPSRFSGSGSGTDYTLTISSLQPEDFATYYCQQYYINPRTFGQGTKVEIKR
notes: VH/VL only
[9]
  binding result: binds
[10]
  binding result: binds

B6: TSAR1003 (antibody, V domains shown)
VH: QLQLQESGPGLVKPSETLSLTCTVSGVSIGTSSYYWGWIRQPPAKGLEWIGSIYYSGSTYYNPSLKNRVTISVDTSKNHFSLKLSSVTAADTAVYYCARHRTGQYYYNSWGQGTLVTVSS
VL: SSELTQDPAVSVALGQTVRITCQGDSLRTDYATWYQQKPGQAPILVFYGEDNRPSGIPDRFSGSSSGNTASLTITGAQAEDEADYYCNSRDSSGHHWVFGGGTKLTVL
notes: as for B1
[11]
  binding result: binds

B7: TSAR1001 (antibody, V domains shown)
VH: EVQLVESGGGMVQPGESLRLSCAASGFDFTSYWMAWVRQAPGKGLEWVANMNADGSEKHYVDSVKGRFSISRDNAKKLLFLQMNSLTVDDTGVYYCARDEGRREGAWGQGTQVIVSA
VL: EIVLTQSPATLSFSPGDRATLSCRASQNINRFLAWYQQKPGQTPRLLIYDASTRATGIPARFSGSGSGTDFSLIISSLEPEDFAIYYCQQRNNWPITFGPGTKVDVK
notes: as for B1
[12]
  binding result: binds

B8: TSTO1002 (antibody, V domains shown)
VH: EVQLVESGGGLVKPGGSLRLSCAASGFTFSNAWMNWVRQTPGKGLEWVGRIKTKTDGGTTDYAEPVKGRFTISRDDSKNTLYLQMNSLKTEDTAVYYCTRGAVADYWGQGTQVTVSS
VL: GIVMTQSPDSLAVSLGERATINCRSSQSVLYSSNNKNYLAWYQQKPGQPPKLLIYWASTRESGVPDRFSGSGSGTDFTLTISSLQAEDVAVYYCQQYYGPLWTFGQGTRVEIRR
notes: as for B1
[13]
  binding result: binds

B9: TSAR1006 (antibody, V domains shown)
VH: QVQLVQSGTEVKKPGASVKVSCKASGYRFTSNGISWVRQAPGQGLQWMGWISTDSGNTNYAQSFQGRVTLTRDTSTNTAYLELRRLRSEDTAVYYCARDKSWYFDYWGQGTLVSVSS
VL: SYELTQPPSVSVSPGQTARITCSGDALPKKYVFWYQQRSGQAPVLVIYEDSKRPSGIPDRFSGSSSGTLATLTISGAQVEDEADYYCYSTDTIGNWVFGGGTRLTVL
notes: as for B1
[14]
  binding result: binds
[15]
  binding result: binds
